We go through 167 variants from the RNAGym collection of RNA variant scans (doi:10.7554/elife.80360).

Sequences and labels used below:
B1: Twister Ribozyme (parent)
chain: AACACUGCCAAUGCCGGUCCCAAGCCCGGAUAAAAGUGGAGGGGGCGG

This series covers variants of B1. The series is described as follows: self-cleavage, relative activity (ratio to wild type); higher = more cleavage; co-transcriptional.
C20U G48U: the self-cleavage turned out to be 0.963.
Turning to G7C C19A, the self-cleavage stood at 0.0521.
To G29A A33G belongs 0.845; to A23G G43C, 0.125.
The figure for G28U A34C is 0.205; for U12G G41U it is 0.783.
To A35U C46G belongs 0.927; to U12G U18A, 0.46; to U6C A23G, 0.0715.
As to C3G U18A, the self-cleavage came out at 0.116.
To A33U G41C belongs 0.18; to A2U C5G, 0.172; to A2U C5U, 0.448.
The figure for A2U C21G is 0.0765; for U6G G13U it is 0.0456.
To C26A G38A belongs 0.143; to C19U U37C, 0.242; to G16U A34C, 0.111.
With G13C G28C, the self-cleavage was found to be 0.31.
Consider G24U A40U, for which the self-cleavage is 0.0893.
The figure for A23G G24A is 0.12; for U12G A22C it is 1.13.
To C5U C20U belongs 0.816; to C8A A23U, 0.0553.
To C5A G38C belongs 0.341.
As for G38U G44A, the self-cleavage stood at 0.811.
For the variant A23U U37G, the self-cleavage is 0.0831.
To G7U C14G belongs 0.0477; to A2G A11U, 0.583.
The figure for U18C A33U is 0.542.
The figure for A30C G39C is 0.107.
As for G7A G38U, the self-cleavage came to 0.168.
To G24U G36U belongs 0.0805.
To C9U U37A belongs 0.26.
The figure for G29C G42C is 0.174; for C14G G42C it is 0.095.
In the case of C3A A32C, the self-cleavage turned out to be 0.188.
To C27U A33U belongs 0.709; to A4G C8G, 0.289; to G44C G47A, 0.371.
To U31G G45U belongs 0.883; to C19G G47C, 0.193; to A23G A30C, 0.0761.
To G41C G44A belongs 0.211.
Consider C20A A35C, for which the self-cleavage amounted to 0.191.
The figure for A4U C26A is 0.0524.
To A10U A22G belongs 0.291; to G17C C26G, 0.446.
For the variant U12G G29U, the self-cleavage worked out at 0.823.
Take G16C A23G: the self-cleavage was 0.092.
The figure for G17A G42U is 0.135; for A32C G43C it is 0.153; for C5G C20A it is 0.0467.
Regarding G16A G24A, the self-cleavage is 0.0954.
The figure for C26G G42A is 0.103; for U18G C26G it is 0.0643.
As for G28A A30U, the self-cleavage came out at 0.844.
The figure for C19G A34U is 0.12.
Turning to A23U G36A, the self-cleavage was 0.132.
To A11C G16C belongs 0.187; to U12G G42U, 0.531; to U12G C46U, 0.866.
The figure for U6A G29C is 0.335; for A11U A34G it is 1.07.
To C14U belongs 1.1; to C14A, 0.923; to A23C G39C, 0.103.
With U18G A33U, the self-cleavage came out at 0.0323.
Take A34G G47U: the self-cleavage was 0.553.
To C19U G41U belongs 0.125.
The figure for A1G G43U is 0.243; for C27G A30G it is 0.0912.
Consider G43C C46U, for which the self-cleavage amounted to 0.214.
To G24C G38U belongs 0.0774.
The figure for C3G U6C is 0.0367.
The figure for G7A A32G is 0.323.
With C15U C19A, the self-cleavage was found to be 0.228.
To C21G G47A belongs 0.0718.
To C27G A33G belongs 0.139; to C15G G48C, 0.0718; to G29A G44U, 0.922.
The figure for U6A C26U is 0.237; for A1U A30U it is 0.0367; for U6C A30C it is 0.0653.
In the case of C20U A22G, the self-cleavage is 0.119.
Take A4G G29A: the self-cleavage amounted to 0.819.
With U12C C26G, the self-cleavage came to 0.179.
The figure for C14G G45A is 0.113.
For A22U C46A, the self-cleavage was determined as 0.764.
The figure for C8A G44C is 0.276; for A1C C21U it is 0.125; for G13C G29A it is 0.411.
To G13C G36C belongs 0.122; to U6G C8G, 0.2; to G13U G28C, 0.405.
The figure for A4G C25G is 0.189.
A33G G36C: the self-cleavage turned out to be 0.303.
To C9A G13U belongs 0.927; to A10U C26A, 0.607.
To A11G C26G belongs 0.234; to G47C G48U, 0.4; to C5A G45U, 0.413.
A23U G28A: the self-cleavage was 0.211.
The figure for A23U G28C is 0.249.
The figure for A11U A33C is 0.909; for A2G G24C it is 0.0995; for G13C C15A it is 0.0696.
The figure for A32G G42C is 0.38; for C8G C14U it is 0.625; for A22C A40U it is 0.152.
As for C5G C9U, the self-cleavage stood at 0.13.
To A4U A10C belongs 0.156; to A10U G36C, 0.711.
The figure for C27G G42C is 0.082; for A2C G42U it is 0.0469.
To G7A G17C belongs 0.0766; to A22U A32G, 0.786.
In the case of A1C G41C, the self-cleavage stood at 0.14.
To A1C C26G belongs 0.171.
Take A4U G13U: the self-cleavage turned out to be 0.0584.
The figure for C14A G43C is 0.182; for C14A G43A it is 0.309; for C5A G44U it is 0.532.
To A4C A35U belongs 0.272.
To G39U G47A belongs 0.14; to G24U A32C, 0.113; to A32G G45U, 0.668.
On to C26G G41U, for which the self-cleavage worked out at 0.0825.
To U37C G38A belongs 0.166; to C15U G28C, 0.988; to U18G G43C, 0.116.
In the case of A1G G16U, the self-cleavage worked out at 0.726.
The figure for U12A A35U is 1.06; for C14A C21G it is 0.1; for G13U G16C it is 0.094.
To A1U U12A belongs 0.0685.
To A34U G42A belongs 0.169; to A2G G38C, 0.118.
Turning to G24C A30U, the self-cleavage is 0.0977.
To A11G A35U belongs 0.941; to A1G C9U, 0.259.
To A2G A30U belongs 0.256.
To A32G C46A belongs 0.753; to A2G G47U, 0.117.
In the case of A1C C3A, the self-cleavage amounted to 0.193.
The figure for A11U U12A is 0.95.
The figure for A4G C19G is 0.166; for C15A C25G it is 0.192.
The figure for G29A G42U is 0.323; for A23U C26G it is 0.101; for U12C C27U it is 0.951.
C9A C14G: the self-cleavage worked out at 0.0661.
To A4U C19U belongs 0.0724; to G7C G39A, 0.0735.
For the variant C3A A10C, the self-cleavage came out at 0.308.
The figure for A1C G17C is 0.145.
As to A11G G43C, the self-cleavage is 0.169.
To U31G G47A belongs 0.782; to U6C G44U, 0.502; to U18A C21A, 0.084.
As to G13C C21A, the self-cleavage came out at 0.0599.
To C3G C14A belongs 0.418; to U6A A11C, 0.61.
To G16C G48A belongs 0.473.
The figure for G7U G17C is 0.0441; for A1G A10C it is 0.532.
With C14U G24A, the self-cleavage is 0.173.
